The values that follow come from US10526371B2, “Hydrogel-forming peptides” (Universiteit Gent, priority 2015, dated 2020).

Numbered stars: 1 amine (or outer) side, 2 acyl side, 3 side chain; on linkers, the order of the positions; unused ones are H or OH. Square brackets hold non-standard residues; d marks the D form. β3hCha = beta-3-homo-cyclohexylalanine, O=C(C[C@H](CC1CCCCC1)N[*:1])[*:2]; β3hW = N[C@H](CC(=O)O)Cc1c[nH]c2ccccc12; β3hF = N[C@H](CC(=O)O)Cc1ccccc1

The data set in a line: Peptide self-assembly / gelation conditions. It is filed as physicochemical. The note with it: for time of gelation (self-supporting gel formed) / gelation condition: TFA salt; for time of gelation (self-supporting gel formed): at its own gelation condition. As to the method: Peptide self-assembly was analyzed in i) a PBS solution (10 mM), ii) a PBS/mQ mixture (1:1 v:v, mQ water with a resistivity of […]) or iii) a NaCl aqueous solution (150 mM). The TFA salt of reference peptide SEQ NO. 23 (1 mg) was dissolved in 50 μl mQ water, followed by the addition of 50 μl PBS solution. This mixture was left to rest overnight, resulting in a 1% w/v hydrogel. The TFA salt of mixed α/β-peptides SEQ ID NO 1 and SEQ ID NO 2 (2 mg) was dissolved in mQ (100 μL) and PBS/mQ mixture (100 μL), respectively. […] The TFA salt of mixed α/β-peptide SEQ ID NO 3 (3 mg) was dissolved in PBS (100 μL) to probe gelation. All self-assembled gels were analyzed by circular dichroism (CD) and Fourier transform infrared (FT-IR) spectroscopy, as well as cryogenic transmission electron microscopy (Cryo-TEM).
(SEQ ID NO:22 (=10-mer)), 100 μl mQ water was added to 2 mg of TFA-salt of pure peptide, then vortexed and sonicated. As a result, a transparent self-supporting gel was formed immediately. A gelation condition of 2 w/v % in mQ water was found.
for H-Fβ^2hFEFQFK-NH2 (SEQ ID NO:19), 100 μl of PBS was added to 2 mg of TFA-salt of pure peptide, then vortexed and sonicated. After overnight resting, a self-supporting gel was formed. A gelation condition of 2 w/v % in PBS was determined.

Consider “H-Phe-Glu-β^3Phe-Tyr-Gln-β^3hPhe-Tyr-Lys-OH (H-FE[β3hF]YQ[β3hF]YK-OH) [SEQ ID NO 4]”, for which, for the setting “in PBS”, the “Gelation condition % (w/v)” value is reported as 2% (PBS) % (w/v).
For “H-Phe-Glu-β^3hPhe-Phe-Lys-Phe-NH2 (H-FE[β3hF]FKF-NH2; SMILES NCCCC[C@H](NC(=O)[C@H](Cc1ccccc1)NC(=O)C[C@H](Cc1ccccc1)NC(=O)[C@H](CCC(=O)O)NC(=O)[C@@H](N)Cc1ccccc1)C(=O)N[C@@H](Cc1ccccc1)C(N)=O) [SEQ ID NO 11]”, the “Gelation condition % (w/v)” value (in PBS) is 2% (PBS) % (w/v).
For the substance “H-Phe-Glu-β^3hPhe-Phe-Lys-NH2 (H-FE[β3hF]FK-NH2; SMILES NCCCC[C@H](NC(=O)[C@H](Cc1ccccc1)NC(=O)C[C@H](Cc1ccccc1)NC(=O)[C@H](CCC(=O)O)NC(=O)[C@@H](N)Cc1ccccc1)C(N)=O) [SEQ ID NO 6]”, under “in PBS”, the “Gelation condition % (w/v)” value was 3% (PBS) % (w/v).
Take “H-Phe-Glu-β^3hPhe-Phe-Gln-Phe-Lys-NH2 (H-FE[β3hF]FQFK-NH2; SMILES NCCCC[C@H](NC(=O)[C@H](Cc1ccccc1)NC(=O)[C@H](CCC(N)=O)NC(=O)[C@H](Cc1ccccc1)NC(=O)C[C@H](Cc1ccccc1)NC(=O)[C@H](CCC(=O)O)NC(=O)[C@@H](N)Cc1ccccc1)C(N)=O) [SEQ ID NO 13]”: the “Gelation condition % (w/v)” value (in PBS) was 2% (PBS) % (w/v).
Take “H-Glu-β^3hPhe-Phe-Lys-β^3hPhe-Phe-NH2 (H-E[β3hF]FK[β3hF]F-NH2; SMILES NCCCC[C@H](NC(=O)[C@H](Cc1ccccc1)NC(=O)C[C@H](Cc1ccccc1)NC(=O)[C@@H](N)CCC(=O)O)C(=O)N[C@H](CC(=O)N[C@@H](Cc1ccccc1)C(N)=O)Cc1ccccc1) [SEQ ID NO 12]”: the “Gelation condition % (w/v)” value (in mQ/PBS 1:0.5) is 1.5% (mQ/PBS 1:0.5) % (w/v).
As for “H-β^3hPhe-Phe-Glu-β^3hPhe-Phe-Lys-NH2 (H-[β3hF]FE[β3hF]FK-NH2; SMILES NCCCC[C@H](NC(=O)[C@H](Cc1ccccc1)NC(=O)C[C@H](Cc1ccccc1)NC(=O)[C@H](CCC(=O)O)NC(=O)[C@H](Cc1ccccc1)NC(=O)C[C@@H](N)Cc1ccccc1)C(N)=O) [SEQ ID NO 10]”, the “Gelation condition % (w/v)” value (in PBS) was 1% (PBS) % (w/v).
Take “H-Phe-Glu-β^3hPhe-Phe-Lys-β^3hPhe-Phe-NH2 (H-FE[β3hF]FK[β3hF]F-NH2; SMILES NCCCC[C@H](NC(=O)[C@H](Cc1ccccc1)NC(=O)C[C@H](Cc1ccccc1)NC(=O)[C@H](CCC(=O)O)NC(=O)[C@@H](N)Cc1ccccc1)C(=O)N[C@H](CC(=O)N[C@@H](Cc1ccccc1)C(N)=O)Cc1ccccc1) [SEQ ID NO 16]”: for the setting “in mQ”, the “Gelation condition % (w/v)” value was 2% (mQ) % (w/v).
“H-β^3hPhe-Phe-Glu-Phe-Gln-Phe-Lys-NH2 (H-[β3hF]FEFQFK-NH2; SMILES NCCCC[C@H](NC(=O)[C@H](Cc1ccccc1)NC(=O)[C@H](CCC(N)=O)NC(=O)[C@H](Cc1ccccc1)NC(=O)[C@H](CCC(=O)O)NC(=O)[C@H](Cc1ccccc1)NC(=O)C[C@@H](N)Cc1ccccc1)C(N)=O) [SEQ ID NO 17]”: the “Gelation condition % (w/v)” value (in PBS) was 2% (PBS) % (w/v).
Consider “H-Phe-Glu-Phe-Gln-β^3hPhe-Phe-Lys-NH2 (H-FEFQ[β3hF]FK-NH2; SMILES NCCCC[C@H](NC(=O)[C@H](Cc1ccccc1)NC(=O)C[C@H](Cc1ccccc1)NC(=O)[C@H](CCC(N)=O)NC(=O)[C@H](Cc1ccccc1)NC(=O)[C@H](CCC(=O)O)NC(=O)[C@@H](N)Cc1ccccc1)C(N)=O) [SEQ ID NO 18]”, for which the “Gelation condition % (w/v)” value (in PBS) is given as 2% (PBS) % (w/v).
Consider “H-Phe-Glu-Phe-Gln-Phe-Lys-β^3hPhe-Phe-NH2 (H-FEFQFK[β3hF]F-NH2; SMILES NCCCC[C@H](NC(=O)[C@H](Cc1ccccc1)NC(=O)[C@H](CCC(N)=O)NC(=O)[C@H](Cc1ccccc1)NC(=O)[C@H](CCC(=O)O)NC(=O)[C@@H](N)Cc1ccccc1)C(=O)N[C@H](CC(=O)N[C@@H](Cc1ccccc1)C(N)=O)Cc1ccccc1) [SEQ ID NO 21]”, for which, where the note is “in mQ/PBS 1:1”, the “Gelation condition % (w/v)” value is listed as 1.5% (mQ/PBS 1:1) % (w/v).
Take “H-Phe-Gln-β^3hPhe-Phe-Gln-β^3hPhe-Phe-Lys-OH (H-FQ[β3hF]FQ[β3hF]FK-OH; SMILES NCCCC[C@H](NC(=O)[C@H](Cc1ccccc1)NC(=O)C[C@H](Cc1ccccc1)NC(=O)[C@H](CCC(N)=O)NC(=O)[C@H](Cc1ccccc1)NC(=O)C[C@H](Cc1ccccc1)NC(=O)[C@H](CCC(N)=O)NC(=O)[C@@H](N)Cc1ccccc1)C(=O)O) [SEQ ID NO 5]”: where the note is “in mQ”, the “Gelation condition % (w/v)” value is 2% (mQ) % (w/v).
For “H-Trp-Glu-β^3hTrp-Trp-Gln-Trp-Lys-NH2 (H-WE[β3hW]WQWK-NH2; SMILES NCCCC[C@H](NC(=O)[C@H](Cc1c[nH]c2ccccc12)NC(=O)[C@H](CCC(N)=O)NC(=O)[C@H](Cc1c[nH]c2ccccc12)NC(=O)C[C@H](Cc1c[nH]c2ccccc12)NC(=O)[C@H](CCC(=O)O)NC(=O)[C@@H](N)Cc1c[nH]c2ccccc12)C(N)=O) [SEQ ID NO 14]”, the “Gelation condition % (w/v)” value (in mQ/PBS 1:0.5) is reported as 1.5% (mQ/PBS 1:0.5) % (w/v).
For the substance “H-Phe-β^3hPhe-Glu-Phe-Gln-Phe-Lys-NH2 (H-F[β3hF]EFQFK-NH2; SMILES NCCCC[C@H](NC(=O)[C@H](Cc1ccccc1)NC(=O)[C@H](CCC(N)=O)NC(=O)[C@H](Cc1ccccc1)NC(=O)[C@H](CCC(=O)O)NC(=O)C[C@H](Cc1ccccc1)NC(=O)[C@@H](N)Cc1ccccc1)C(N)=O) [SEQ ID NO 19]”, the “time of gelation (self-supporting gel formed)” value is “overnight”. For the setting “in PBS”, the gelation condition came out at 2 w/v % and the “Gelation condition % (w/v)” value is reported as 2% (PBS) % (w/v).
Regarding “H-Phe-Glu-β^3hCha-Phe-Gln-β^3hCha-Phe-Lys-OH (H-FE[β3hCha]FQ[β3hCha]FK-OH) [SEQ ID NO 8]”, the “Gelation condition % (w/v)” value (in mQ) is reported as 3% (mQ) % (w/v).
Consider “H-Phe-Gln-β^3hPhe-Phe-Lys-NH2 (H-FQ[β3hF]FK-NH2; SMILES NCCCC[C@H](NC(=O)[C@H](Cc1ccccc1)NC(=O)C[C@H](Cc1ccccc1)NC(=O)[C@H](CCC(N)=O)NC(=O)[C@@H](N)Cc1ccccc1)C(N)=O) [SEQ ID NO 9]”, for which, where the note is “in PBS”, the “Gelation condition % (w/v)” value is listed as 3% (PBS) % (w/v).
“H-Phe-Glu-β^3hPhe-Phe-Gln-Phe-Gln-β^3hPhe-Phe-Lys-NH2 (H-FE[β3hF]FQFQ[β3hF]FK-NH2; SMILES NCCCC[C@H](NC(=O)[C@H](Cc1ccccc1)NC(=O)C[C@H](Cc1ccccc1)NC(=O)[C@H](CCC(N)=O)NC(=O)[C@H](Cc1ccccc1)NC(=O)[C@H](CCC(N)=O)NC(=O)[C@H](Cc1ccccc1)NC(=O)C[C@H](Cc1ccccc1)NC(=O)[C@H](CCC(=O)O)NC(=O)[C@@H](N)Cc1ccccc1)C(N)=O) [SEQ ID NO 22]”: the “time of gelation (self-supporting gel formed)” value is “immediately”. Also, the gelation condition (in mQ water) came out at 2 w/v %. In addition, where the note is “in mQ”, the “Gelation condition % (w/v)” value is given as 2% (mQ) % (w/v).
On to “H-Phe-Glu-β^3hPhe-Phe-Gln-Phe-Lys-Phe-NH2 (H-FE[β3hF]FQFKF-NH2; SMILES NCCCC[C@H](NC(=O)[C@H](Cc1ccccc1)NC(=O)[C@H](CCC(N)=O)NC(=O)[C@H](Cc1ccccc1)NC(=O)C[C@H](Cc1ccccc1)NC(=O)[C@H](CCC(=O)O)NC(=O)[C@@H](N)Cc1ccccc1)C(=O)N[C@@H](Cc1ccccc1)C(N)=O) [SEQ ID NO 20]”, for which the “Gelation condition % (w/v)” value (in mQ/PBS 1:1) was 1.5% (mQ/PBS 1:1) % (w/v).
For the substance “H-Phe-Glu-β^3hPhe-Phe-Lys-OH (H-FE[β3hF]FK-OH; SMILES NCCCC[C@H](NC(=O)[C@H](Cc1ccccc1)NC(=O)C[C@H](Cc1ccccc1)NC(=O)[C@H](CCC(=O)O)NC(=O)[C@@H](N)Cc1ccccc1)C(=O)O) [SEQ ID NO 7]”, the “Gelation condition % (w/v)” value (in mQ) is on record as 3% (mQ) % (w/v).
On to “H-Trp-Glu-β^3hPhe-Phe-Gln-Trp-Lys-NH2 (H-WE[β3hF]FQWK-NH2; SMILES NCCCC[C@H](NC(=O)[C@H](Cc1c[nH]c2ccccc12)NC(=O)[C@H](CCC(N)=O)NC(=O)[C@H](Cc1ccccc1)NC(=O)C[C@H](Cc1ccccc1)NC(=O)[C@H](CCC(=O)O)NC(=O)[C@@H](N)Cc1c[nH]c2ccccc12)C(N)=O) [SEQ ID NO 15]”, for which, where the note is “in PBS”, the “Gelation condition % (w/v)” value was 2% (PBS) % (w/v).
